Source: doi:10.1101/2023.06.09.544295 (bioRxiv, 2023)

Experiments:
CMKLR1 = system: CMKLR1; parameters: method as in 4 sources, one per row (each row's own in cited_ref): ref [28] = [28]; PMID 25437209; doi:10.1371/journal.pone.0112925; 28 Graham K. L. A novel CMKLR1 small molecule antagonist suppresses CNS autoimmune inflammatory disease. PLoS One 9 , e112925 , doi: 10.1371/journal.pone.0112925 ( 2014 ). 25437209 PMC4249827 ||| ref [9] = [9]; PMID 25548799; doi:10.1007/s00011-014-0792-7; 9 Mariani F. & Roncucci L. Chemerin/chemR23 axis in inflammation onset and resolution. Inflamm Res 64 , 85 – 95 , doi: 10.1007/s00011-014-0792-7 ( 2015 ). 25548799 ||| ref [25]–[27] = [25]; PMID 17339491; doi:10.4049/jimmunol.178.6.3912; 25 Arita M. Resolvin E1 selectively interacts with leukotriene B4 receptor BLT1 and ChemR23 to regulate inflammation. J Immunol 178 , 3912 – 3917 , doi: 10.4049/jimmunol.178.6.3912 ( 2007 ). 17339491 || [26]; PMID 19906641; doi:10.1074/jbc.M109.044131; 26 Ohira T. Resolvin E1 receptor activation signals phosphorylation and phagocytosis. J Biol Chem 285 , 3451 – 3461 , doi: 10.1074/jbc.M109.044131 ( 2010 ). 19906641 PMC2823415 || [27]; PMID 25637017; doi:10.4049/jimmunol.1402166; 27 Herova M. , Schmid M. , Gemperle C. & Hersberger M. ChemR23, the receptor for chemerin and resolvin E1, is expressed and functional on M1 but not on M2 macrophages. J Immunol 194 , 2330 – 2337 , do ||| ref [2]–[5] = [2]; PMID 17635925; doi:10.1074/jbc.M700793200; 2 Goralski K. B. Chemerin, a novel adipokine that regulates adipogenesis and adipocyte metabolism. J Biol Chem 282 , 28175 – 28188 , doi: 10.1074/jbc.M700793200 ( 2007 ). 17635925 || [3]; PMID 17767914; doi:10.1016/j.bbrc.2007.08.104; 3 Roh S. G. Chemerin--a new adipokine that modulates adipogenesis via its own receptor. Biochem Biophys Res Commun 362 , 1013 – 1018 , doi: 10.1016/j.bbrc.2007.08.104 ( 2007 ). 17767914 || [4]; PMID 29848608; doi:10.1530/JOE-18-0174; 4 Helfer G. & Wu Q. F. Chemerin: a multifaceted adipokine involved in metabolic disorders. J Endocrinol 238 , R79 – R94 , doi: 10.1530/JOE-18-0174 ( 2018 ). 29848608 PMC6026924 || [5]; PMID 29279348; doi:10.1124/pr.116.013177; 5 Kennedy A. J. & Davenport A. P. International Union of Basic and Clinical Pharmacology CIII: Chemerin Receptors CMKLR1 (Chemerin(1)) and GPR1 (Chemerin(2)) Nomenclature, Pharmacology, and Function.; details: cited from earlier work
Text: Other isoforms of chemerin due to cleavage at different sites of the C-terminal region have also been detected in vivo with ... || The apparent contradictory functional roles of CMKLR1 in inflammation may be associated with the spatiotemporal regulation of the inflammation processes in cells. It is possible that in the early stage of inflammation the CMKLR1 signaling is mainly pro-inflammatory by promoting chemotaxis and activation of DCs and macrophages; whereas at the late stage of inflammation CMKLR1 activation can induce pro-resolving pathways to dampen inflammation.

[1] = target: T1, wild type human CMKLR1 with the N-terminal 28-amino acid segment of human β2-adrenergic receptor fused to its … (Homo sapiens (Human), UniProt P07550); test: cryo-EM structure of co-purified complex; chemerin9 agonist, Gβ1γ2, scFv16 and apyrase (nucleotide-free); Gαi1 carries dominant negative mutations S47N/G203A/E245A/A326S
T1 chain: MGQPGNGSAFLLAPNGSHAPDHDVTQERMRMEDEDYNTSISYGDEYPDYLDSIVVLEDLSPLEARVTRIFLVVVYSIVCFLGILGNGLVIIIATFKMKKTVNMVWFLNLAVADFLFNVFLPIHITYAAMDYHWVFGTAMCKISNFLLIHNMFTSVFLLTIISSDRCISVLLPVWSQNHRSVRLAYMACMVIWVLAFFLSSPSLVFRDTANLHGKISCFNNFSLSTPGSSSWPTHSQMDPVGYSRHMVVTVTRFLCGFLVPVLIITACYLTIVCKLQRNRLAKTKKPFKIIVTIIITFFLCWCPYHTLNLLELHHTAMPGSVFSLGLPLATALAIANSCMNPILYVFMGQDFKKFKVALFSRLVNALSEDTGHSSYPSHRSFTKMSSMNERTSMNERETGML

[2] = system: primary human macrophages; test: Macrophage differentiation assay, cell surface marker expression by flow cytometry; format: cell-based
Text: HLA-DR is a class II major histocompatibility complex cell surface molecule, a signature cell marker for antigen presenting cells (APCs), while CD86 is a selective ligand for the costimulatory molecule CD28, the activation of which is indispensable for optimal T cell prime and activation; together, HLA-DR and CD86 are signature cell surface markers for the canonical M1-like macrophages. On the other hand, CD206, the mannose receptor (MMR), is a glycosylated surface protein belonging to the scavenger receptor family. Similarly, CD163, another member of the scavenger receptor family, is the receptor for hemoglobin-haptoglobin complex. The upregulation of CD206 and CD163 in macrophages has been associated with the anti-inflammatory and tissue-repair phenotype,[33].
To generate human peripheral blood-derived macrophages, buffy coat was isolated from leukapheresis cones by Ficoll-Paque centrifugation. Monocytes were enriched from human PBMC by CD14 beads positive selection (Miltenyi Biotec) and cultured in IMDM supplanted with 10% human AB serum (omega scientific, Cat# HS-20) for 7 days for them to differentiate to macrophages.
Differentiated macrophages were then replated to low-bind plate at 0.15 million cells per 24-well plate, in 500 µl medium overnight before stimulated with various condition. […] Data were acquired on Cytek Aurora flowcytometry, analysis on Flowjo. MFI quantifications were normalized to M0 condition, and statistically analyzed by 2-way ANOVA, with Dunnett’s multiple comparisons test, all groups were pair-analyzed with M0 group as reference.

[3] = MFI fold-change normalized to M0, chemerin9 10 ng/mL 72 hours, IFNg 10 ng/ml plus LPS 10 ng/ml, IL-10 10 ng/ml, n=4 donors, Fig. 1a

Molecule: C[N+](C)(C)CCC(=O)c1cccc2ccccc12.[I-] [α-NETA]
- potency against CMKLR1 (antagonist) (CMKLR1; small-molecule antagonist, ref [28]): low micromolar potency

Molecule: CC[C@@H](O)/C=C/C=C\C[C@@H](O)/C=C/C=C/C=C\[C@@H](O)CCCC(=O)O [RvE1, resolvin E1]
- action on CMKLR1 (in words) (CMKLR1; ref [25]–[27]): suggested to act on CMKLR1 to promote the resolution of inflammation

Molecule: chemerin15: synthetic peptide corresponding to the 141–155 amino acid segment of chemerin (AGEDPHSFYFPGQFA; UniProt Q99969 141-155, looked up, fragment)
- CMKLR1 agonism / anti-inflammatory effect (in words) (CMKLR1; synthetic peptides, ref [9]): stable agonists of CMKLR1 that induce anti-inflammatory effects

B1: dominant negative form of human Gαi1 (DNGαi1) (protein)
chain: GCTLSAEDKAAVERSKMIDRNLREDGEKAAREVKLLLLGAGESGKNTIVKQMKIIHEAGYSEEECKQYKAVVYSNTIQSIIAIIRAMGRLKIDFGDSARADDARQLFVLAGAAEEGFMTAELAGVIKRLWKDSGVQACFNRSREYQLNDSAAYYLNDLDRIAQPNYIPTQQDVLRTRVKTTGIVETHFTFKDLHFKMFDVGAQRSERKKWIHCFEGVTAIIFCVALSDYDLVLAEDEEMNRMHASMKLFDSICNNKWFTDTSIILFLNKKDLFEEKIKKSPLTICYPEYAGSNTYEEAAAYIQCQFEDLNKRKDTKEIYTHFTCSTDTKNVQFVFDAVTDVIIKNNLKDCGLF
- binding result [1]: binds

B2: IL-10: reference signal molecule to induce the M2-like macrophages (protein, UniProt P22301 19-178, looked up)
Interleukin-10: SPGQGTQSENSCTHFPGNLPNMLRDLRDAFSRVKTFFQMKDQLDNLLLKESLLEDFKGYLGCQALSEMIQFYLEEVMPQAENQDPDIKAHVNSLGENLKTLRLRLRRCHRFLPCENKSKAVEQVKNAFNKLQEKGIYKAMSEFDIFINYIEAYMTMKIRN
- statistical significance of marker changes ([2]; 2-way ANOVA with Dunnett's multiple comparisons vs M0, n=4): statistically insignificant
- CD86 expression (in words) [2, 3]: downregulation
- CD163 expression (in words) [2, 3]: upregulation
- CD206 expression (in words) [2, 3]: upregulation
- macrophage phenotype (in words) ([2]; overall, chemerin9 10 ng/mL, 72 hours): consistent with an anti-inflammatory phenotype
